From patent US20090202549A1 (published 2009)

Assays:
Assay in all cases: capture assay, relative binding affinity of p40 mAb to p40 muteins (FIG. 4)
[1] = biological target: T1, human p40 single mutant L40T (human, UniProt P29460 23-328)
T1 construct: transiently expressed in HEK293E cells, supernatant used
T1 sequence: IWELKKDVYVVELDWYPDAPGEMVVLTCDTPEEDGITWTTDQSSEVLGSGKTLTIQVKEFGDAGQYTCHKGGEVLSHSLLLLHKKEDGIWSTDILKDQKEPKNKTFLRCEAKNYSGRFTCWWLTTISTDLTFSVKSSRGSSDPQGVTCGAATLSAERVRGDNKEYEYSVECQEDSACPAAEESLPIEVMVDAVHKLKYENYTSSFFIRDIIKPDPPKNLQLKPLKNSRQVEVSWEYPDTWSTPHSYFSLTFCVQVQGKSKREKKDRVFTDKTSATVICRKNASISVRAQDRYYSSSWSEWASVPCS
Protocol: (§1) In brief, MSD high bind plates (Meso Scale Discovery, MD) were coated with 5 μl of a capture monoclonal antibody (5 μg/ml) at room temperature for 1 hour. […] One-hundred and fifty (150) μl of 5% MSD Blocker A buffer was added to each well and incubated for 1 hr at room temperature. Plates were washed three times with 0.1 M HEPES buffer (pH 7.4). These protein-charged ELISA plates were incubated with 25 μl of different transiently expressed p40 mutant supernatants (1:10 dilution with 0.1 M HEPES buffer, pH 7.4) for 1 hr at room temperature. The plates were washed three times with 0.1 M HEPES buffer (pH 7.4). Twenty-five (25) μl of different concentrations of MSD Sulfo-TAG labeled p40 mAb, ranging from 0 to 20 μg/ml, were dispensed to micro-wells. After incubation for 2 hrs shaking at room temperature, plates were washed 3 times with 0.1 M HEPES buffer (pH 7.4). One hundred and fifty (150) μl of diluted MSD Read Buffer T was dispensed into each well and the plates were analyzed with a SECTOR imager (MSD).
(§2) The relative binding affinity of p40 mAb to different mutant proteins was further analyzed by a capture assay. […] The other mutations, M23T, L40T and S43R, in the interface, each reduced binding by approximately 40%. E45A reduced binding by about 70%.

[2] = biological target: T2, human p40 single mutant S43R (human, UniProt P29460 23-328)
T2 construct: transiently expressed in HEK293E cells, supernatant used
T2 sequence: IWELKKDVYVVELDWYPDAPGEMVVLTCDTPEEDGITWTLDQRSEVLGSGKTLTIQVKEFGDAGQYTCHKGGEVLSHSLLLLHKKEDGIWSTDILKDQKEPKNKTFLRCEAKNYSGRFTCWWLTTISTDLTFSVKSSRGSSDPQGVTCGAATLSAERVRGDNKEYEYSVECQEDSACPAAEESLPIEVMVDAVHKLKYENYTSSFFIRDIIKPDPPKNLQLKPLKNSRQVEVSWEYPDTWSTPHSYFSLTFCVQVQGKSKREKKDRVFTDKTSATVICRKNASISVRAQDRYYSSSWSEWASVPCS
Protocol: as §1, §2

[3] = biological target: T3, human p40 single mutant M23T (human, UniProt P29460 23-328)
T3 construct: transiently expressed in HEK293E cells, supernatant used
T3 sequence: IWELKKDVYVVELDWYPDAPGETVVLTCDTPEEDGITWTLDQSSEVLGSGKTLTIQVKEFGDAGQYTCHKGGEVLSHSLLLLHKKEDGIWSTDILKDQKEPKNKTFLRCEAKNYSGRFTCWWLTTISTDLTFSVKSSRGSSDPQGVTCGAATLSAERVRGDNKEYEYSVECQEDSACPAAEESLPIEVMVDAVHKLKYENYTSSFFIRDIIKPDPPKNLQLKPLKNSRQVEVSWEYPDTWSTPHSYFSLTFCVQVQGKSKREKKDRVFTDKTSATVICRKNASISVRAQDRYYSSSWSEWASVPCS
Protocol: as §1, §2

[4] = biological target: T4, human p40 single mutant E45A (human, UniProt P29460 23-328)
T4 construct: transiently expressed in HEK293E cells, supernatant used
T4 sequence: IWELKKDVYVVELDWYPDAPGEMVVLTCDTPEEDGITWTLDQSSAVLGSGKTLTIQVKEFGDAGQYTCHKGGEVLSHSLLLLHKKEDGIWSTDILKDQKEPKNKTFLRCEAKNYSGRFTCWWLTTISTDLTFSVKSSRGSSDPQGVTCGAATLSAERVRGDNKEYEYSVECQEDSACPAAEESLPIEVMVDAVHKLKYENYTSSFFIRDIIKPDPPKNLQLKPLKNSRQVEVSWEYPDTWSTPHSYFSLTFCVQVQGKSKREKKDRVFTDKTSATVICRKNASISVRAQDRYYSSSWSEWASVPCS
Protocol: as §1, §2

B1: p40 mAb (fully human monoclonal antibody directed against the p40 subunit of human IL-12 and IL-23) (antibody, V domains shown)
VH: EVQLVQSGAEVKKPGESLKISCKGSGYSFTTYWLGWVRQMPGKGLDWIGIMSPVDSDIRYSPSFQGQVTMSVDKSITTAYLQWNSLKASDTAMYYCARRRPGQGYFDFWGQGTLVTVSS
VL: DIQMTQSPSSLSASVGDRVTITCRASQGISSWLAWYQQKPEKAPKSLIYAASSLQSGVPSRFSGSGSGTDFTLTISSLQPEDFATYYCQQYNIYPYTFGQGTKLEIKR
notes: Fully human IgG made in a mammalian cell line; also called IL-12 p40 antibody; IL-12p40 antibody
reduction of binding (relative binding affinity) [1]: ~40%
reduction of binding (relative binding affinity) [2]: ~40%
reduction of binding (relative binding affinity) [3]: ~40%
reduction of binding (relative binding affinity) [4]: ~70%
